# Data taken from patent US20120316071A1 (published 2012).
# Residue numbers refer to the chain shown, from its start. Names may count otherwise.
# B1: Fab VH1-46_IGHD6-6*01_IGHJ1*01 S102A/S103P/S104F/H111F (APFF) & L6_IGKJ1*01 S30D (Fab, V domains shown)
# VH: QVQLVQSGAEVKKPGASVKVSCKASGYTFTSYYMHWVRQAPGQGLEWMGIINPSGGSTSYAQKFQGRVTMTRDTSTSTVYMELSSLRSEDTAVYYCAREEYAPFSAEYFQFWGQGTLVTVSS
# VL: EIVLTQSPATLSLSPGERATLSCRASQSVDSYLAWYQQKPGQAPRLLIYDASNRATGIPARFSGSGSGTDFTLTISSLEPEDFAVYYCQQRSNWPPWTFGQGTKVEIKR
# notes: Fab expressed in E. coli: VH joined to CH1 (Plasmid A, His6 and Flag tags), VL joined to kappa CL (Plasmid C); also called APFF S30D
# B2: Fab VH1-46_IGHD6-6*01_IGHJ1*01 S102A/S103P/S104F/H111F (APFF) & L6_IGKJ1*01 S30C (Fab, V domains shown)
# VH: B1 VH
# VL: B1 VL with D30C
# notes: Fab expressed in E. coli: VH joined to CH1 (Plasmid A, His6 and Flag tags), VL joined to kappa CL (Plasmid C); also called APFF S30C
# B3: Fab VH1-46_IGHD6-6*01_IGHJ1*01 S102A/S103P/S104F/H111F (APFF) & L6_IGKJ1*01 S30P (Fab, V domains shown)
# VH: B1 VH
# VL: B1 VL with D30P
# notes: Fab expressed in E. coli: VH joined to CH1 (Plasmid A, His6 and Flag tags), VL joined to kappa CL (Plasmid C); also called APFF S30P
# B4: Fab VH1-46_IGHD6-6*01_IGHJ1*01 S102A/S103P/S104F/H111F (APFF) & L6_IGKJ1*01 S30W (Fab, V domains shown)
# VH: B1 VH
# VL: B1 VL with D30W
# notes: Fab expressed in E. coli: VH joined to CH1 (Plasmid A, His6 and Flag tags), VL joined to kappa CL (Plasmid C); also called APFF S30W
# B5: Fab VH1-46_IGHD6-6*01_IGHJ1*01 S102A/S103P/S104F/H111F (APFF) & L6_IGKJ1*01 S30R (Fab, V domains shown)
# VH: B1 VH
# VL: B1 VL with D30R
# notes: Fab expressed in E. coli: VH joined to CH1 (Plasmid A, His6 and Flag tags), VL joined to kappa CL (Plasmid C); also called APFF S30R
# B6: Fab VH1-46_IGHD6-6*01_IGHJ1*01 S102A/S103P/S104F/H111F (APFF) & L6_IGKJ1*01 S30T (Fab, V domains shown)
# VH: B1 VH
# VL: B1 VL with D30T
# notes: Fab expressed in E. coli: VH joined to CH1 (Plasmid A, His6 and Flag tags), VL joined to kappa CL (Plasmid C); also called APFF S30T
# B7: Fab VH1-46_IGHD6-6*01_IGHJ1*01 S102A/S103P/S104F/H111F (APFF) & L6_IGKJ1*01 S30L (Fab, V domains shown)
# VH: B1 VH
# VL: B1 VL with D30L
# notes: Fab expressed in E. coli: VH joined to CH1 (Plasmid A, His6 and Flag tags), VL joined to kappa CL (Plasmid C); also called APFF S30L
# B8: Fab VH1-46_IGHD6-6*01_IGHJ1*01 S102A/S103P/S104F/H111F (APFF) & L6_IGKJ1*01 S30Q (Fab, V domains shown)
# VH: B1 VH
# VL: B1 VL with D30Q
# notes: Fab expressed in E. coli: VH joined to CH1 (Plasmid A, His6 and Flag tags), VL joined to kappa CL (Plasmid C); also called APFF S30Q
# B9: Fab VH1-46_IGHD6-6*01_IGHJ1*01 S102A/S103P/S104F/H111F (APFF) & L6_IGKJ1*01 S30G (Fab, V domains shown)
# VH: B1 VH
# VL: B1 VL with D30G
# notes: Fab expressed in E. coli: VH joined to CH1 (Plasmid A, His6 and Flag tags), VL joined to kappa CL (Plasmid C); also called APFF S30G
# B10: Fab VH5-51_IGHD5-18*01>3_IGHJ4*01 G100K/G104T G24T/S28R/G35V (H:KT TRV) & V3-4_IGLJ1*01 V91L/S96P S57D (Fab, V domains shown)
# VH: EVQLVQSGAEVKKPGESLKISCKTSGYRFTSYWIVWVRQMPGKGLEWMGIIYPGDSDTRYSPSFQGQVTISADKSISTAYLQWSSLKASDTAMYYCARRKYSYTYDYFDYWGQGTLVTVSS
# VL: QTVVTQEPSFSVSPGGTVTLTCGLSSGSVSTSYYPSWYQQTPGQAPRTLIYSTNTRDSGVPDRFSGSILGNKAALTITGAQADDESDYYCLLYMGPGISYVFGTGTKVTVL
# notes: Fab made in E. coli: VH in plasmid A (CH1, His6 and Flag tags), VL in plasmid E (lambda CL); also called H:KT TRV & L:LP S57D
# B11: Fab VH5-51_IGHD5-18*01>3_IGHJ4*01 G100K/G104T G24T/S28R/G35V (H:KT TRV) & V3-4_IGLJ1*01 V91L/S96P S57E (Fab, V domains shown)
# VH: B10 VH
# VL: B10 VL with D57E
# notes: Fab made in E. coli: VH in plasmid A (CH1, His6 and Flag tags), VL in plasmid E (lambda CL); also called H:KT TRV & L:LP S57E
# B12: Fab VH5-51_IGHD5-18*01>3_IGHJ4*01 G100K/G104T G24T/S28R/G35V (H:KT TRV) & V3-4_IGLJ1*01 V91L/S96P T53W (Fab, V domains shown)
# VH: B10 VH
# VL: B10 VL with T53W, D57S
# notes: Fab made in E. coli: VH in plasmid A (CH1, His6 and Flag tags), VL in plasmid E (lambda CL); also called H:KT TRV & L:LP T53W
# B13: Fab VH5-51_IGHD5-18*01>3_IGHJ4*01 G100K/G104T G24T/S28R/G35V (H:KT TRV) & V3-4_IGLJ1*01 V91L/S96P T53R (Fab, V domains shown)
# VH: B10 VH
# VL: B10 VL with T53R, D57S
# notes: Fab made in E. coli: VH in plasmid A (CH1, His6 and Flag tags), VL in plasmid E (lambda CL); also called H:KT TRV & L:LP T53R
# B14: Fab VH5-51_IGHD5-18*01>3_IGHJ4*01 G100K/G104T G24T/S28R/G35V (H:KT TRV) & V3-4_IGLJ1*01 V91L/S96P S57N (Fab, V domains shown)
# VH: B10 VH
# VL: B10 VL with D57N
# notes: Fab made in E. coli: VH in plasmid A (CH1, His6 and Flag tags), VL in plasmid E (lambda CL); also called H:KT TRV & L:LP S57N
# B15: Fab VH5-51_IGHD5-18*01>3_IGHJ4*01 G100K/G104T G24T/S28R/G35V (H:KT TRV) & V3-4_IGLJ1*01 V91L/S96P S57W (Fab, V domains shown)
# VH: B10 VH
# VL: B10 VL with D57W
# notes: Fab made in E. coli: VH in plasmid A (CH1, His6 and Flag tags), VL in plasmid E (lambda CL); also called H:KT TRV & L:LP S57W
# B16: Fab VH5-51_IGHD5-18*01>3_IGHJ4*01 G100K/G104T G24T/S28R/G35V (H:KT TRV) & V3-4_IGLJ1*01 V91L/S96P S57M (Fab, V domains shown)
# VH: B10 VH
# VL: B10 VL with D57M
# notes: Fab made in E. coli: VH in plasmid A (CH1, His6 and Flag tags), VL in plasmid E (lambda CL); also called H:KT TRV & L:LP S57M
# B17: Fab VH5-51_IGHD5-18*01>3_IGHJ4*01 G100K/G104T G24T/S28R/G35V (H:KT TRV) & V3-4_IGLJ1*01 V91L/S96P T53G (Fab, V domains shown)
# VH: B10 VH
# VL: B10 VL with T53G, D57S
# notes: Fab made in E. coli: VH in plasmid A (CH1, His6 and Flag tags), VL in plasmid E (lambda CL); also called H:KT TRV & L:LP T53G
# B18: Fab VH5-51_IGHD5-18*01>3_IGHJ4*01 G100K/G104T G24T/S28R/G35V (H:KT TRV) & V3-4_IGLJ1*01 V91L/S96P S57G (Fab, V domains shown)
# VH: B10 VH
# VL: B10 VL with D57G
# notes: Fab made in E. coli: VH in plasmid A (CH1, His6 and Flag tags), VL in plasmid E (lambda CL); also called H:KT TRV & L:LP S57G
# B19: Fab VH5-51_IGHD5-18*01>3_IGHJ4*01 G100K/G104T G24T/S28R/G35V (H:KT TRV) & V3-4_IGLJ1*01 V91L/S96P S57T (Fab, V domains shown)
# VH: B10 VH
# VL: B10 VL with D57T
# notes: Fab made in E. coli: VH in plasmid A (CH1, His6 and Flag tags), VL in plasmid E (lambda CL); also called H:KT TRV & L:LP S57T
# Target: T1, Recombinant Human DLL4 (R&D Systems Cat#1506-D4/CF) (human, UniProt Q9NR61 27-524)
# T1 construct: Bought recombinant protein; also called delta-like protein 4; rHuman DLL4
# Assay: ECL multispot (MSD) binding assay, DLL4 signal over blank spot; Fab concentration not given
row,Signal/Blank,Binder
1,568,B1
2,141,B2
3,4.4,B3
4,660,B4
5,350,B5
6,300,B6
7,524,B7
8,1020,B8
9,664,B9

# Target: T1, Recombinant Human DLL4 (R&D Systems …)
# Assay: ECL multispot (MSD) binding assay, DLL4 spotted on plate, purified Fab in solution; Fab concentration not given
row,ECL signal,Binder
1,225000,B1
2,129000,B2
3,1140,B3
4,191000,B4
5,146000,B5
6,122000,B6
7,199000,B7
8,203000,B8
9,180000,B9

# Target: T2, Recombinant Human DLL4 (delta-like protein 4) (human, UniProt Q9NR61 27-524)
# T2 construct: Bought recombinant human DLL4 (R&D Systems Cat#1506-D4/CF) coated on the ELISA plate; also called rHuman DLL4; Delta-like ligand 4
# Assay: ELISA, DLL4 coated on plate, 100 nM Fab
row,ELISA Signal-blank (100 nM Fab),Binder
1,0.17,B10
2,0.2,B11
3,0.06,B12
4,0.05,B13
5,0.24,B14
6,0.12,B15
7,0.3,B16
8,0.08,B17
9,0.23,B18
10,0.3,B19
